A short description of data set [1]: tryptophan fluorescence, urea dissociation of multimeric peptide complexes, 5 µM peptide.
Data set [2] in a line: tryptophan fluorescence, urea dissociation of multimeric peptide complexes, 25 µM peptide.
Data set [3] deals with S. epidermidis delta-haemolysin (Staphylococcus epidermidis). The experiment in a line: tryptophan fluorescence, urea dissociation of multimeric peptide complexes, 5 µM peptide.
Data set [4] shares this target. The experiment in a line: tryptophan fluorescence, urea dissociation of multimeric peptide complexes, 25 µM peptide.

Take S. epidermidis delta-haemolysin: the “midpoint of urea unfolding curve (5 µM peptide)” value in data set [1] was “The midpoints of the unfolding curves of 5 µM and 25 µM were 2.14 and 3.20M urea”. The “midpoint of urea unfolding curve (25 µM peptide)” value in data set [2] was “The midpoints of the unfolding curves of 5 µM and 25 µM were 2.14 and 3.20M urea”.
In data set [3], “S. epidermidis delta-haemolysin (peptide)” had a deltaG (H2O) (5 µM peptide) of 1.43 kcal/mol. In data set [4], this substance came in with a deltaG (H2O) (25 µM peptide) of 1.57 kcal/mol.

The values are drawn from patent US20210244785A1.
